Data on 4 molecules can be found in US20190322748A1 (Hoffmann-La Roche, published 2019).

The target in test [1] is T1, human PD1-ECD (human, UniProt Q15116 25-170).
T1 construct: SPR analyte; also called hu PD1-ECD
Description: SPR; row head 'Affinity KD 37°C [nM] *)', second of two values (equals the 25 C value of Table 9). Background: Surface plasmon resonance follows binding to a sensor surface in real time, without labels.

Test [2] has as its target T2, biotinylated PD1-ECD-AviHis (human, UniProt Q15116 25-170, biotinylated, site not stated).
T2 construct: also called huPD1; hu PD1
The experiment in a line: ELISA on coated biotinylated PD1-ECD-AviHis.

Test [3] has as its target T3, biotinylated cynoPD1-ECD-Biotin (cynomolgus).
T3 construct: extracellular domain; also called cyPD1
Description: ELISA on coated cynoPD1-ECD-Biotin. A general note: An ELISA detects its analyte on a solid surface through an enzyme-linked reagent.

Test [4] concerns the target T4, full-length human PD1 on cells (CHO-K1 stably transfected with plasmid 15311_hPD1-fl_pUC_Neo) (human, UniProt Q15116 25-288).
T4 construct: Also used as the target of the MLR and reporter read-outs; also called CHO-PD1; PD1 on primary human T cells in the MLR
The experiment in a line: cell ELISA on CHO-K1 cells with full-length human PD1.

Test [5] concerns the target T1, human PD1-ECD. The experiment in a line: SPR; row head 'Affinity KD 37°C [nM] *)', first of two values, footnote not explained.
In test [6] the target is T3, biotinylated cynoPD1-ECD-Biotin. The experiment in a line: ELISA, cynomolgus cross-reactivity.
In test [7] the target is T2, biotinylated PD1-ECD-AviHis. Description: ELISA on coated biotinylated PD1-ECD-AviHis. The source holds these as a separate data set.
Test [8] deals with T1, human PD1-ECD. The experiment in a line: SPR Biacore T200, Ab captured on anti-human IgG, 25 C.

Read-outs that look alike come from different tables or passages of the source.

B1: PD1-0103-0312 (antibody, human IgG1, V domains shown)
VH: EVQLLESGGGLVQPGGSLRLSCAASGFSFSSYTMSWVRQAPGKGLEWVATISGGGRDIYYPDSVKGRFTISRDNSKNTLYLQMNSLRAEDTAVYYCVLLTGRVYFALDSWGQGTLVTVSS
VL: DIVMTQSPDSLAVSLGERATINCKASESVDTSDNSFIHWYQQKPGQSPKLLIYRSSTLESGVPDRFSGSGSGTDFTLTISSLQAEDVAVYYCQQNYDVPWTFGQGTKVEIK
notes: Humanized
B1: the Kd (as a rule, a measure of binding affinity in units of concentration) with human PD1-ECD [1] was 1.8 nM; with human PD1-ECD [5], 1.5 nM; with human PD1-ECD [8], 1.8 nM. Further, the EC50 (commonly the concentration needed to bring the measured effect to its halfway point) in test [2] is 0.1 nM; in test [3], 0.0083 µg/mL; in test [4], 0.0101 µg/mL; in test [6] it was 0.08 nM; in test [7], 0.011 µg/mL. Moreover, the off-rate (koff) (usually the rate constant with which the complex falls apart) in the test with human PD1-ECD [8] is 0.000345 s⁻¹. Further, the kon (as a rule, the second-order rate constant of association) with human PD1-ECD [8] was 195000 M⁻¹ s⁻¹.

B2: PD1-0103-0315 (antibody, human IgG1, V domains shown)
VH: B1 VH
VL: EIVLTQSPATLSLSPGERATLSCRASESVDTSDNSFIHWYQQKPGQSPRLLIYRSSTLESGIPARFSGSGSGTDFTLTISSLEPEDFAVYYCQQNYDVPWTFGQGTKVEIK
notes: Humanized
Turning to B2, the Kd amounted to 1.5 nM with human PD1-ECD [1], 1.7 nM in the test with human PD1-ECD [5] and 1.5 nM with human PD1-ECD [8]. The EC50 in test [2] came out at 0.06 nM; in test [3], 0.0079 µg/mL; in test [4], 0.0073 µg/mL; in test [6] it was 0.04 nM; in test [7] it was 0.01 µg/mL. Further, the dissociation rate constant (koff) with human PD1-ECD [8] came to 0.000291 s⁻¹. Besides, the kon in the test with human PD1-ECD [8] is 189000 M⁻¹ s⁻¹.

B3: PD1-0103-0313 (antibody, human IgG1, V domains shown)
VH: B1 VH
VL: DVVMTQSPLSLPVTLGQPASISCRASESVDTSDNSFIHWYQQRPGQSPRLLIYRSSTLESGVPDRFSGSGSGTDFTLKISRVEAEDVGVYYCQQNYDVPWTFGQGTKVEIK
notes: Humanized
As for B3, the Kd in the test with human PD1-ECD [1] is 2.3 nM; with human PD1-ECD [5], 1.9 nM; with human PD1-ECD [8], 2.3 nM. The 50% effective concentration (EC50) in test [2] amounted to 0.07 nM; in test [3], 0.011 µg/mL; in test [4] it was 0.0108 µg/mL; in test [6], 0.06 nM; in test [7], 0.015 µg/mL. In the test with human PD1-ECD [8], the off-rate constant (koff) was determined as 0.000367 s⁻¹. In addition, in the test with human PD1-ECD [8], the kon was 160000 M⁻¹ s⁻¹.

B4: PD1-0103-0314 (antibody, human IgG1, V domains shown)
VH: B1 VH
VL: B2 VL
notes: Humanized
Consider B4, for which the Kd was found to be 1.5 nM with human PD1-ECD [1], 1.6 nM with human PD1-ECD [5] and 1.5 nM with human PD1-ECD [8]. Moreover, the EC50 worked out at 0.07 nM in test [2]; 0.0083 µg/mL in test [3]; 0.0077 µg/mL in test [4]; 0.05 nM in test [6]; 0.011 µg/mL in test [7]. The off-rate constant (koff) with human PD1-ECD [8] amounted to 0.000279 s⁻¹. The molecule further yielded a kon with human PD1-ECD [8] of 187000 M⁻¹ s⁻¹.
